Experimental data from publication PMC5095702 (Biochemistry, 2016).

Target: the molecule itself
Assay: SEC

B1: KdnB from Shewanella oneidensis (enzyme, S. oneidensis, UniProt Q8EEB0 1-356, looked up)
chain: MSFKNFKVVEKMIFGRGSFVQLDDVLAAQRKADDDFVVFLVDDVHQGKPLEARIPVKAQDLLIWVNVDEEPSTIQIDALTEQVQAFNGKLPVSVVGLGGGSTMDVAKAVSLMLTNPGGSAMYQGWDLIKKPAVHHIGIPTISGTGAEASRTAVLCGPVRKLGLNSDYTVFDQIIMDSELIDGVETDQWFYTGMDCYIHCVESLEGTFLNEFSKAYAEKAMDLCRQVYLEDHPEKDDKLMMASFMGGMSIAYSQVGACHAVSYGLSYILGYHHGIGNCIAFDVLEEFYPEGVAEFRLMMKKHNITLPKNICKDLPDETIAKMVAVTKSMGPLWANVYGPTWEEKVTDEMLTALFRRI
  stoichiometry N: 2
